# Data from patent US20170081400A1 (CEPHALON, published 2017).
# Substitutions are numbered along the chain they refer to.
# T1: human TL1A extracellular domain with N-terminal HIS and FLAG tag (human, UniProt O95150 72-251)
# T1 construct: the whole entry is named
# T1 sequence: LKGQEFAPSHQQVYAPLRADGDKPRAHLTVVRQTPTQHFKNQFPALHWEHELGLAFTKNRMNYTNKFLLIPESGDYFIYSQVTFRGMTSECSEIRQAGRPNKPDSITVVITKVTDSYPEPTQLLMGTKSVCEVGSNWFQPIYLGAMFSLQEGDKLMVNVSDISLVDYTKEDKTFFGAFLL
# B1: 320-373 (antibody, human IgG1, name in Kabat numbering, V domains shown)
# VH: QVQLVQSGAEVKKPGASVKVSCKASGYTFTSYDINWVRQAPGQGLEWMGWLNPNSGNTGYAQKFQGRVTMTADRSTSTAYMELSSLRSEDTAVYYCAREVPETAAFEYWGQGTLVTVSS
# VL: QSVLTQPPSVSGAPGQRVTISCTSSSSDIGAGLGVHWYQQLPGTAPKLLIEGYYNRPSGVPDRFSGSKSGTSASLTITGLLPEDEGDYYCQSYDGTLSQLFGGGTKLTVLG
# notes: human IgG1, lambda
# B2: 320-397 (antibody, human IgG1, name in Kabat numbering, V domains shown)
# VH: B1 VH with Y27A
# VL: B1 VL with Q99A
# notes: human IgG1, lambda
# B3: 320-382 (antibody, human IgG1, name in Kabat numbering, V domains shown)
# VH: B1 VH
# VL: B1 VL with Q99A, L100Q
# notes: human IgG1, lambda
# B4: 320-392 (antibody, human IgG1, name in Kabat numbering, V domains shown)
# VH: B1 VH with G26H
# VL: B1 VL with Q99A
# notes: human IgG1, lambda
# B5: 320-387 (antibody, human IgG1, name in Kabat numbering, V domains shown)
# VH: B1 VH
# VL: B1 VL with Q99A, L100Y
# notes: human IgG1, lambda
# B6: 320-404 (antibody, human IgG1, name in Kabat numbering, V domains shown)
# VH: B1 VH with T28A
# VL: B1 VL with Q99A
# notes: human IgG1, lambda
# B7: 320-393 (antibody, human IgG1, name in Kabat numbering, V domains shown)
# VH: B1 VH with G26K
# VL: B1 VL with Q99A
# notes: human IgG1, lambda
# B8: 320-379 (antibody, human IgG1, name in Kabat numbering, V domains shown)
# VH: B1 VH
# VL: B1 VL with Q99Y
# notes: human IgG1, lambda
# B9: 320-396 (antibody, human IgG1, name in Kabat numbering, V domains shown)
# VH: B1 VH with G26Y
# VL: B1 VL with Q99A
# notes: human IgG1, lambda
# B10: 320-389 (antibody, human IgG1, name in Kabat numbering, V domains shown)
# VH: B1 VH with G26S
# VL: B1 VL with Q99A
# notes: human IgG1, lambda
# B11: 320-405 (antibody, human IgG1, name in Kabat numbering, V domains shown)
# VH: B1 VH with T28S
# VL: B1 VL with Q99A
# notes: human IgG1, lambda
# B12: 320-376 (antibody, human IgG1, name in Kabat numbering, V domains shown)
# VH: B1 VH
# VL: B1 VL with Q99K
# notes: human IgG1, lambda
# B13: 320-375 (antibody, human IgG1, name in Kabat numbering, V domains shown)
# VH: B1 VH
# VL: B1 VL with Q99H
# notes: human IgG1, lambda
# B14: 320-400 (antibody, human IgG1, name in Kabat numbering, V domains shown)
# VH: B1 VH with Y27D
# VL: B1 VL with Q99A
# notes: human IgG1, lambda
# B15: 320-398 (antibody, human IgG1, name in Kabat numbering, V domains shown)
# VH: B1 VH with Y27S
# VL: B1 VL with Q99A
# notes: human IgG1, lambda
# B16: 320-381 (antibody, human IgG1, name in Kabat numbering, V domains shown)
# VH: B1 VH
# VL: B1 VL with Q99A, L100S
# notes: human IgG1, lambda
# B17: 320-394 (antibody, human IgG1, name in Kabat numbering, V domains shown)
# VH: B1 VH with G26L
# VL: B1 VL with Q99A
# notes: human IgG1, lambda
# B18: 320-402 (antibody, human IgG1, name in Kabat numbering, V domains shown)
# VH: B1 VH with Y27L
# VL: B1 VL with Q99A
# notes: human IgG1, lambda
# B19: 320-390 (antibody, human IgG1, name in Kabat numbering, V domains shown)
# VH: B1 VH with G26Q
# VL: B1 VL with Q99A
# notes: human IgG1, lambda
# B20: 320-406 (antibody, human IgG1, name in Kabat numbering, V domains shown)
# VH: B1 VH with T28Q
# VL: B1 VL with Q99A
# notes: human IgG1, lambda
# B21: 320-377 (antibody, human IgG1, name in Kabat numbering, V domains shown)
# VH: B1 VH
# VL: B1 VL with Q99L
# notes: human IgG1, lambda
# B22: 320-399 (antibody, human IgG1, name in Kabat numbering, V domains shown)
# VH: B1 VH with Y27Q
# VL: B1 VL with Q99A
# notes: human IgG1, lambda
# B23: 320-403 (antibody, human IgG1, name in Kabat numbering, V domains shown)
# VH: B1 VH with Y27W
# VL: B1 VL with Q99A
# notes: human IgG1, lambda
# B24: 320-408 (antibody, human IgG1, name in Kabat numbering, V domains shown)
# VH: B1 VH with T28H
# VL: B1 VL with Q99A
# notes: human IgG1, lambda
# B25: 320-388 (antibody, human IgG1, name in Kabat numbering, V domains shown)
# VH: B1 VH with G26A
# VL: B1 VL with Q99A
# notes: human IgG1, lambda
# B26: 320-391 (antibody, human IgG1, name in Kabat numbering, V domains shown)
# VH: B1 VH with G26D
# VL: B1 VL with Q99A
# notes: human IgG1, lambda
# B27: 320-410 (antibody, human IgG1, name in Kabat numbering, V domains shown)
# VH: B1 VH with T28L
# VL: B1 VL with Q99A
# notes: human IgG1, lambda
# B28: 320-378 (antibody, human IgG1, name in Kabat numbering, V domains shown)
# VH: B1 VH
# VL: B1 VL with Q99W
# notes: human IgG1, lambda
# B29: 320-411 (antibody, human IgG1, name in Kabat numbering, V domains shown)
# VH: B1 VH with T28W
# VL: B1 VL with Q99A
# notes: human IgG1, lambda
# B30: 320-383 (antibody, human IgG1, name in Kabat numbering, V domains shown)
# VH: B1 VH
# VL: B1 VL with Q99A, L100D
# notes: human IgG1, lambda
# B31: 320-401 (antibody, human IgG1, name in Kabat numbering, V domains shown)
# VH: B1 VH with Y27H
# VL: B1 VL with Q99A
# notes: human IgG1, lambda
# B32: 320-407 (antibody, human IgG1, name in Kabat numbering, V domains shown)
# VH: B1 VH with T28D
# VL: B1 VL with Q99A
# notes: human IgG1, lambda
# B33: 320-409 (antibody, human IgG1, name in Kabat numbering, V domains shown)
# VH: B1 VH with T28K
# VL: B1 VL with Q99A
# notes: human IgG1, lambda
# B34: 320-395 (antibody, human IgG1, name in Kabat numbering, V domains shown)
# VH: B1 VH with G26W
# VL: B1 VL with Q99A
# notes: human IgG1, lambda
# B35: 320-384 (antibody, human IgG1, name in Kabat numbering, V domains shown)
# VH: B1 VH
# VL: B1 VL with Q99A, L100H
# notes: human IgG1, lambda
# Target: T1, human TL1A extracellular domain with …
# Test: SPR Run 5, Ab from supernatant captured on Protein A, TL1A 5 ug/mL, timepoint 220
# Source text: (§1) 1.5. Antibody expression and antigen binding as determined by SPR. Using a CM5 sensor chip (GE Healthcare) Protein A (Pierce) was coupled to the chip surface using an amine coupling kit (GE Healthcare). Protein A was coupled on flow cell 1 and 2 (or alternatively 3 and 4) using a BIACORE® T200. […] The amount of supernatant or purified protein (as well as the concentration) injected during the capture stage varied between runs and is specified in the header of the Tables 3-11. At the end of injection of the supernatant or purified antibody the change in response units was measured. This value was reported as Capture Level in Tables 3-11. […] The response units were measured prior to the end of the dissociation phase. […] The sensorgrams were double referenced (flow cell 2 is subtracted from flow cell 1 and a buffer blank). As there were a large number of antibody variants to screen, these were screened across different runs (Tables 3-11). […] A summary of the conditions used in each run is below:
# (§2) 2.1. […] In some experiment the antibodies were purified using Protein A chromatography (See 1.4) and purified antibodies were used in BIACORE® (GE Healthcare) experiments.
row,TL1A Binding Level (Late),Binder
1,-1 RU,B1
2,12 RU,B2
3,0 RU,B3
4,11 RU,B4
5,10 RU,B5
6,10 RU,B6
7,11 RU,B7
8,1 RU,B8
9,11 RU,B9
10,11 RU,B10
11,9 RU,B11
12,1 RU,B12
13,-1 RU,B13
14,11 RU,B14
15,11 RU,B15
16,1 RU,B16
17,12 RU,B17
18,10 RU,B18

row,TL1A Binding Level (Late),Binder
1,11 RU,B19
2,7 RU,B20
3,-1 RU,B21
4,10 RU,B22
5,10 RU,B23
6,12 RU,B24
7,13 RU,B25
8,13 RU,B26
9,10 RU,B27
10,-1 RU,B28
11,9 RU,B29
12,1 RU,B30
13,10 RU,B31
14,11 RU,B32
15,10 RU,B33
16,12 RU,B34
17,2 RU,B35

# Target: T1, human TL1A extracellular domain with …
# Test: SPR Run 5, Ab from supernatant captured on Protein A, TL1A 5 ug/mL, timepoint 44
# Source text: as §1, §2
row,TL1A Binding Level (Early),Binder
1,-1 RU,B1
2,12 RU,B2
3,0 RU,B3
4,12 RU,B4
5,11 RU,B5
6,11 RU,B6
7,12 RU,B7
8,3 RU,B8
9,12 RU,B9
10,12 RU,B10
11,10 RU,B11
12,3 RU,B12
13,-2 RU,B13
14,11 RU,B14
15,12 RU,B15
16,3 RU,B16
17,13 RU,B17
18,11 RU,B18

row,TL1A Binding Level (Early),Binder
1,12 RU,B19
2,8 RU,B20
3,-1 RU,B21
4,10 RU,B22
5,11 RU,B23
6,13 RU,B24
7,14 RU,B25
8,14 RU,B26
9,11 RU,B27
10,-1 RU,B28
11,10 RU,B29
12,3 RU,B30
13,11 RU,B31
14,12 RU,B32
15,10 RU,B33
16,13 RU,B34
17,3 RU,B35
